Measured values: paper PMC3093372, “A Large and Intact Viral Particle Penetrates the Endoplasmic Reticulum Membrane to Reach the Cytosol” (PLoS Pathogens, 2011)

B1: SV40 VP1 coat protein (natural protein, simian virus 40 (SV40), UniProt P03087 1-362, looked up)
chain: MAPTKRKGSCPGAAPKKPKEPVQVPKLVIKGGIEVLGVKTGVDSFTEVECFLNPQMGNPDEHQKGLSKSLAAEKQFTDDSPDKEQLPCYSVARIPLPNINEDLTCGNILMWEAVTVKTEVIGVTAMLNLHSGTQKTHENGAGKPIQGSNFHFFAVGGEPLELQGVLANYRTKYPAQTVTPKNATVDSQQMNTDHKAVLDKDNAYPVECWVPDPSKNENTRYFGTYTGGENVPPVLHITNTATTVLLDEQGVGPLCKADSLYVSAVDICGLFTNTSGTQQWKGLPRYFKITLRKRSVKNPYPISFLLSDLINRRTQRVDGQPMIGMSSQVEEVRVYEDTEELPGDPDMIRYIDEFGQTTTRMQ
notes: major capsid protein VP1 of simian virus 40, native protein of the virus (genome from pUCSV40); no residues stated; Stood in the assays as part of viral particles or of VP1 pentamers; the introduction says the capsid is 72 pentamers of VP1; source: SV40 virions purified from SV40-infected or viral genome-transfected CV-1 cells (OptiPrep gradient); input virus in S1 and S2 fractions and whole cell …
B2: SV40 VP2 (natural protein)
chain: MGAALTLLGDLIATVSEAAAATGFSVAEIAAGEAAAAIEVQLASVATVEGLTTSEAIAAIGLIPQAYAVISGAPAAIAGFAALLQTVTGVSAVAQVGYRFFSDWDHKVSTVGLYQQPGMAVDLYRPDDYYDILFPGVQTFVHSVQYLDPRHWGPTLFNAISQAFWRVIQNDIPRLTSQELERRTQRYLRDSLARFLEETTWTVINAPVNWYNSLQDYYSTLSPIRPTMVRQVANREGLQISFGHTYDNIDEADSIQQVTERWEAQSQSPNVQSGEFIEKFEAPGGANQRTAPQWMLPLLLGLYGSVTSALKAYEDGPNKKKRKLSRGSSQKTKGTSASAKARHKRRNRSSRS
notes: minor capsid protein VP2 of simian virus 40, native protein of the virus; contains all of VP3 plus an additional N-terminal extension; Detected with a VP2/VP3 antibody that sees both proteins; source: SV40 virions purified from SV40-infected or viral genome-transfected CV-1 cells (OptiPrep gradient); input virus in S1 and S2 fractions of infected CV-1 cells

Key:
[1] = molecular target: the molecule itself; assay: sucrose gradient sedimentation; S1 of CV-1 cells transfected with the SV40 genome for 48 hrs; continuous 20-40% sucrose gradient, 49,500 rpm, 50 min, 4°C; fractions blotted for VP1
SV40 VP1 coat protein = molecular target: B1; assay: co-IP; S2 (Triton X-100 extract of P1, ER-localized virus) from CV-1 cells infected with SV40 for 12 hrs; precipitated with VP1 monoclonal antibodies (CC10 and BC11), Protein G-Dynabeads, wash 50 mM Hepes pH 7.5, 500 mM NaCl, 1% Triton X-100; blot with VP2/VP3 antibody; settings: partners not purified

Row | Binder | stoichiometry N [1] | binding result (SV40 VP1 coat protein)
1 | B1 | 5 | –
2 | B2 | – | binds
